Publication PMC9270245, “A metal ion–dependent conformational switch modulates activity of the Plasmodium M17 aminopeptidase” (The Journal of Biological Chemistry, 2022)

Biological target: the molecule itself
Experiment: SEC; analytical gel filtration, 100 ug purified protein, Superdex S200 Increase 10/300, 50 mM Hepes (pH 8.0), 300 mM NaCl, 1 mM MnCl2; approximate molecular weight by interpolation of a standard curve

B1: M17 aminopeptidase from Plasmodium falciparum, wildtype (truncated, amino acids 85-605) (enzyme, UniProt Q8IL11 85-605, looked up)
chain: ASEVPQVVSLDPTSIPIEYNTPIHDIKVQVYDIKGGCNVEEGLTIFLVNNPGKENGPVKISSKVNDKNVSEFLKDENMEKFNVKLGTSKHFYMFNDNKNSVAVGYVGCGSVADLSEADMKRVVLSLVTMLHDNKLSKLTVVFEINVDKNLFRFFLETLFYEYMTDERFKSTDKNVNMEYIKHLGVYINNADTYKEEVEKARVYYFGTYYASQLIAAPSNYCNPVSLSNAAVELAQKLNLEYKILGVKELEELKMGAYLSVGKGSMYPNKFIHLTYKSKGDVKKKIALVGKGITFDSGGYNLKAAPGSMIDLMKFDMSGCAAVLGCAYCVGTLKPENVEIHFLSAVCENMVSKNSYRPGDIITASNGKTIEVGNTDAEGRLTLADALVYAEKLGVDYIVDIATLTGAMLYSLGTSYAGVFGNNEELINKILNSSKTSNEPVWWLPIINEYRATLNSKYADINNISSSVKASSIVASLFLKEFVQNTAWAHIDIAGVSWNFKARKPKGFGVRLLTEFVLNDAL
notes: Homohexamer, a dimer of trimers; also called PfA-M17; wildtype PfA-M17; source: E. coli BL21(DE3), autoinduction, purified (nickel-nitrilotriacetic acid agarose, gel filtration on Superdex S200)
  stoichiometry N: 6

B2: PfA-M17 (A387P) (enzyme)
chain: ASEVPQVVSLDPTSIPIEYNTPIHDIKVQVYDIKGGCNVEEGLTIFLVNNPGKENGPVKISSKVNDKNVSEFLKDENMEKFNVKLGTSKHFYMFNDNKNSVAVGYVGCGSVADLSEADMKRVVLSLVTMLHDNKLSKLTVVFEINVDKNLFRFFLETLFYEYMTDERFKSTDKNVNMEYIKHLGVYINNADTYKEEVEKARVYYFGTYYASQLIAAPSNYCNPVSLSNAAVELAQKLNLEYKILGVKELEELKMGAYLSVGKGSMYPNKFIHLTYKSKGDVKKKIALVGKGITFDSGGYNLKPAPGSMIDLMKFDMSGCAAVLGCAYCVGTLKPENVEIHFLSAVCENMVSKNSYRPGDIITASNGKTIEVGNTDAEGRLTLADALVYAEKLGVDYIVDIATLTGAMLYSLGTSYAGVFGNNEELINKILNSSKTSNEPVWWLPIINEYRATLNSKYADINNISSSVKASSIVASLFLKEFVQNTAWAHIDIAGVSWNFKARKPKGFGVRLLTEFVLNDAL
notes: M17 aminopeptidase of Plasmodium falciparum, amino acids 85-605, with a proline in place of Ala387 by site-directed mutagenesis (PCR); the PDB entries hold the wildtype parent; source: E. coli BL21(DE3), autoinduction, purified (nickel-nitrilotriacetic acid agarose, gel filtration on Superdex S200)
  stoichiometry N: 6
